The values below come from patent US20250121081A1 (JIANGSU HENGRUI PHARMACEUTICALS, published 2025).

In assay [1] the target is T1, human ROR1 on cells (ROR1-CHO-K1, Jeko-1, MDA-MB-231, HCC827/ROR1) (human, UniProt Q01973 30-937). Nature of the assay: cell-based or functional assay.
In assay [2] the target is T1, human ROR1 on cells (ROR1-CHO-K1, …). Nature of the assay: cell-based or functional assay. The source holds these as a separate data set.
For assay [3] the target is unchanged. Nature of the assay: flow cytometry on Jeko-1 cells. The procedure:
(§1) ROR1-CHO-K1 cells (Example 1), Jeko-1 cells (ATCC, CRL-3006), or MDA-MB-231 cells (ATCC, CRM-HTB-26) were separately suspended in a FACS buffer (2% fetal bovine serum (Gibco, 10099141) and PBS at pH 7.4 (Sigma, P4417-100TAB) to prepare a cell suspension at 1× 10⁶ cells/mL, and the suspension was then added to a 96-well round-bottom plate at 100 μL/well. After centrifugation and removal of the supernatant, the test antibody that was diluted with the FACS buffer to different concentrations was added at 50 μL/well. The plate was incubated in the dark in a 4° C. refrigerator for 1 h. The plate was washed 3 times with the FACS buffer by centrifugation at 500 g, and a fluorescent secondary antibody at a working concentration was added. The plate was incubated in the dark in the 4° C. refrigerator for 40 min. The plate was washed 3 times with the FACS buffer by centrifugation at 500 g and tested on a BD FACSCantoII flow cytometer for geometric mean fluorescence intensity, and the EC₅₀ values for the binding of the antibody to the cells expressing ROR1 were calculated.

Assay [4] shares this target. Nature of the assay: flow cytometry on MDA-MB-231 cells. The method, then:
as §1

The target is the same in assay [5]. Nature of the assay: flow cytometry on ROR1-CHO-K1 cells. The method, then: as §1
The target of assay [6] is T2, human ROR1 (Cat. #19771-H08H, Sino Biological) antigen (human, UniProt Q01973 30-403).
T2 construct: Bought soluble antigen used as SPR analyte
Nature of the assay: SPR (Biacore T200), IgG captured on Protein A chip, human ROR1 as analyte, 1:1 model. The method, then:
(§2) The anti-ROR1 antibody was analyzed by Biacore T200 (Cytiva) for affinity characterization and binding kinetics. The IgG antibody was subjected to affinity capture by a Protein A biosensor chip (Cat. #29127556, Cytiva), and then a human ROR1 (Cat. #19771-H08H, Sino Biological) antigen that was diluted with the HBS-EP buffer (pH 7.4, Cat. #BR-1006-69, Cytiva) to a series of concentrations was allowed to flow over the surface of the chip. The antigen-antibody binding kinetics was tracked for 3 min and the dissociation kinetics was tracked for 10 min. Reaction signals were detected in real time using a Biacore T200 instrument to obtain binding and dissociation curves. After dissociation was complete in each cycle, the biosensor chip was washed with 10 mM Gly-HCl at pH 1.5 (Cat. #BR-1003-54, Cytiva) for regeneration. The data obtained were analyzed with BIAevaluation software of Cytiva using a 1:1 (Langmuir) binding model.

Assay [7] concerns the target T3, rat ROR1-His (Cat. #RO1-R5221, Acro) antigen (rat, UniProt D3ZZ97 30-406).
T3 construct: Bought His-tagged antigen; not shown: His tag
Nature of the assay: SPR (Biacore T200), IgG captured on Protein A chip, rat ROR1-His as analyte, 1:1 model. The method, then:
as §2, with “a mouse ROR1-His” for “a human ROR1”, “(Cat. #RO1-M522, Acro) antigen and a rat ROR1-His (Cat. #RO1-R5221, Acro)” for “(Cat. #19771-H08H, Sino Biological)”, “that were” for “that was”, “concentrations were” for “concentrations was”, “for 15” for “for 10”

Assay [8] addresses T4, mouse ROR1-His (Cat. #RO1-M522, Acro) antigen (mouse, UniProt Q9Z139 30-403).
T4 construct: Bought His-tagged antigen; not shown: His tag
Nature of the assay: SPR (Biacore T200), IgG captured on Protein A chip, mouse ROR1-His as analyte, 1:1 model. The method, then: as §2, with “a mouse ROR1-His” for “a human ROR1”, “(Cat. #RO1-M522, Acro) antigen and a rat ROR1-His (Cat. #RO1-R5221, Acro)” for “(Cat. #19771-H08H, Sino Biological)”, “that were” for “that was”, “concentrations were” for “concentrations was”, “for 15” for “for 10”

Assay [9] deals with T4, mouse ROR1-His (Cat. #RO1-M522, Acro) …. Nature of the assay: SPR (Biacore T200), IgG captured on Protein A chip, antigen as analyte. The procedure:
as §2, with “a mouse ROR1-His” for “a human ROR1”, “(Cat. #RO1-M522, Acro) antigen and a rat ROR1-His (Cat. #RO1-R5221, Acro)” for “(Cat. #19771-H08H, Sino Biological)”, “that were” for “that was”, “concentrations were” for “concentrations was”, “for 15” for “for 10”

For assay [10], the target named is T3, rat ROR1-His (Cat. #RO1-R5221, Acro) …. Described as above. The procedure: as §2, with “a mouse ROR1-His” for “a human ROR1”, “(Cat. #RO1-M522, Acro) antigen and a rat ROR1-His (Cat. #RO1-R5221, Acro)” for “(Cat. #19771-H08H, Sino Biological)”, “that were” for “that was”, “concentrations were” for “concentrations was”, “for 15” for “for 10”

T4 sequence (Q9Z139 30-403 limits assumed): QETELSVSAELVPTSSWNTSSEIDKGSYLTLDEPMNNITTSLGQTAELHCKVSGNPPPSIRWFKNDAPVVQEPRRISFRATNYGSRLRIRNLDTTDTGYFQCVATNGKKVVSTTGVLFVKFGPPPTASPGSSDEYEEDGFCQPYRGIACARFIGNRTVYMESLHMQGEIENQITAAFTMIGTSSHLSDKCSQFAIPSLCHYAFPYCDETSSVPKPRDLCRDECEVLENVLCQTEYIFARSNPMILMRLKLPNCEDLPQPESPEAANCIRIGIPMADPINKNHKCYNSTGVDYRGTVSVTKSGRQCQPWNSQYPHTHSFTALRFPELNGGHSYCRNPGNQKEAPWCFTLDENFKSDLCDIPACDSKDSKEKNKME
T2 sequence (Q01973 30-403 limits assumed): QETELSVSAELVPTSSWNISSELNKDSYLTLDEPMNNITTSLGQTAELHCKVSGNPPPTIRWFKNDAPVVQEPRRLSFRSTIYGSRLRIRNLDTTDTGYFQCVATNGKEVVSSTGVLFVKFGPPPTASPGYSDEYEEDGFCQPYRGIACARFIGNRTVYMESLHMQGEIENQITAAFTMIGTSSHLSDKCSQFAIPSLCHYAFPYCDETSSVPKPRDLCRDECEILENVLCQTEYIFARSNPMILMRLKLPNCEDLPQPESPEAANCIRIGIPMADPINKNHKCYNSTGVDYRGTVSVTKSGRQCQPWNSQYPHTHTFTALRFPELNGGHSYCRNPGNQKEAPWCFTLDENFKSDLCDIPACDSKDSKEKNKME
T1 sequence (Q01973 30-937 limits assumed): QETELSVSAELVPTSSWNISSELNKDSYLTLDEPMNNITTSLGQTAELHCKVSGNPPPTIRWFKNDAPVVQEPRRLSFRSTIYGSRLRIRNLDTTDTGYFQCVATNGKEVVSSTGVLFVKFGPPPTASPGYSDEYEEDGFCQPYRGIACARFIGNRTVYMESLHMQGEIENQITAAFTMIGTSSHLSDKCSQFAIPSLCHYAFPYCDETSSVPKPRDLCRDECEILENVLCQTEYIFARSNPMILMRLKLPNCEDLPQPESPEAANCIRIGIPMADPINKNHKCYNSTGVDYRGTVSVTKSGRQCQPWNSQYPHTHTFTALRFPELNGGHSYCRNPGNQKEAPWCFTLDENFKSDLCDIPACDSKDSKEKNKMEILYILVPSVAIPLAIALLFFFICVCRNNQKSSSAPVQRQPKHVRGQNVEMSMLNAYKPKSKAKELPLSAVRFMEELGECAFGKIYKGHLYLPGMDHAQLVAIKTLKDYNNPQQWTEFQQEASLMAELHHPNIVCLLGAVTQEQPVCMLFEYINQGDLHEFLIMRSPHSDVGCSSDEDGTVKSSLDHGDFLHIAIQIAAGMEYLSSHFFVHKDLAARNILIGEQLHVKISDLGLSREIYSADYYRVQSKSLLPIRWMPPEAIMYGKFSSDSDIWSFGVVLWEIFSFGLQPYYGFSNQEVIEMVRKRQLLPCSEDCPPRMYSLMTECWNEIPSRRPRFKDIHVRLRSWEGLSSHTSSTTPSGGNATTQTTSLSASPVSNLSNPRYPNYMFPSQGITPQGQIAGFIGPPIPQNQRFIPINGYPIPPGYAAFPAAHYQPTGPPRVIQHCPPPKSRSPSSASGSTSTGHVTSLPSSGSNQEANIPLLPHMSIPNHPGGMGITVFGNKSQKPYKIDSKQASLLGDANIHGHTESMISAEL

B1: ADC-5 (antibody 347 conjugated to compound 9A, n=3.99) (antibody, human IgG1, kappa, V domains shown)
VH: QVQLVQSGAEVKKPGSSVKVSCKASGYTFTDYYISWVRQGPGQGLEWMGGINAGNGNTNYAQKFQGRVTITADESTSTAYMELSSLRSEDTAVYYCASPGWDVFDIWGQGTMVTVSS
VL: DIQMTQSPSPLSASVGDRVTITCQASQDISNYLNWYQQKPGKAPKLLIYDASNLETGVPSRFSGSGSGTDFTFTISSLQPEDIATYYCQQHEDLPITFGQGTRLEIKR
modifications: linker-drug compound 9A conjugated after TCEP reduction; average drug loading n=3.99 per antibody; sites not stated
On to B1, for which, in assay [1], the “IC50 (nM), killing of HCC827/ROR1 (+++) cells” value turned out to be 4.36 nM; the “IC50 (nM), killing of Jeko-1 (+) cells” value came out at 58.1 nM; the “IC50 (nM), killing of MDA-MB-231 (+) cells” value was 349 nM.

B2: fully human ROR1 antibody 347 (antibody, human IgG1, kappa, V domains shown)
VH: B1 VH
VL: B1 VL
notes: Full-length human IgG1/kappa
With B2, the “IC50 (nM) (DT3C endocytosis killing on ROR1-CHOK1)” value in assay [2] stood at 0.596 nM. In addition, the EC50 in assay [3] was 0.098 nM; in assay [4], 0.094 nM; in [5] it was 0.502 nM. In addition, the Kd was 1.18 nM in assay [6], 0.0315 nM in assay [7] and 0.238 nM in assay [8]. Further, the results for the koff in [6], in assay [7] and in assay [8] were 0.00273 s⁻¹, 0.00115 s⁻¹ and 0.000676 s⁻¹, respectively. The kon is 2.31e+06 M⁻¹ s⁻¹ in assay [6], 3.66e+07 M⁻¹ s⁻¹ in [7] and 2.84e+06 M⁻¹ s⁻¹ in assay [8].

B3: ADC-4 (antibody 347 conjugated to compound 9A, n=7.39) (antibody, human IgG1, kappa, V domains shown)
VH: B1 VH
VL: B1 VL
modifications: linker-drug compound 9A conjugated after TCEP reduction; average drug loading n=7.39 per antibody; sites not stated
Take B3: in assay [1], the “IC50 (nM), killing of HCC827/ROR1 (+++) cells” value came to 1.36 nM; the “IC50 (nM), killing of Jeko-1 (+) cells” value worked out at 17.4 nM; the “IC50 (nM), killing of MDA-MB-231 (+) cells” value was determined as 146 nM.

B4: anti-ROR1 antibody Ab1 in WO2018237335 (positive control) (antibody, human IgG1, kappa, V domains shown)
VH: QVQLQESGPGLVKPSQTLSLTCTVSGYAFTAYNIHWVRQAPGQGLEWMGSFDPYDGGSSYNQKFKDRLTISKDTSKNQVVLTMTNMDPVDTATYYCARGWYYFDYWGHGTLVTVSS
VL: DIVMTQTPLSLPVTPGEPASISCRASKSISKYLAWYQQKPGQAPRLLIYSGSTLQSGIPPRFSGSGYGTDFTLTINNIESEDAAYYFCQQHDESPYTFGEGTKVEIKR
notes: Positive control antibody; also called Abl
As to B4, the binding result in assay [9] was “no binding”. Also, the binding result in assay [10] was “no binding”. Moreover, in assay [6], the affinity, expressed as Kd, was 91 nM; the koff is 0.0546 s⁻¹; the kon is 600000 M⁻¹ s⁻¹.
